# ± gives the uncertainty stated by the source.
# Experiment: self-splicing fitness, log relative to wild type (ln ratio); higher = more splicing; Tetrahymena group I intron in knt gene, E. coli kanamycin selection, DiMSum; sequences stand for … in CUCUCU…GGAGGGAAAAGUUAUCAGGCAUGCACCUGGUAGCUAGUCUUUAAACCAAUAGAUUGCAUCGGUUUAAAAGGCAAGACCGUCAAAUUGCGGGAAAGGGGUCAACAGCCGUUCAGUACCAAGUCUCAGGGGAAACUUUGAGAUGGCCUUGCAAAGGGUAUGGUAAUAAGCUGACGGACAUGGUCCUAACCACGCAGCCAAGUCCUAAGUCAACAGAUCUUCUGUUGAUAUGGAUGCAGUUCACAGACUAAAUGUCGGUCGGGGAAGAUGUAUUCUUCUCAUAAGAUAUAGUCGGACCUCUCCUUAAUGGGAGCUAGCGGAUGAAGUGAUGCAACACUGGAGCCGCUGGGAACUAAUUUGUAUGCGAAAGUAUAUUGAUUAGUUUUGGAGUACUCGUGGUCG
# Method in brief: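 Pooled colonies went to amplicon sequencing on an Illumina HiSeq 2500 after six replicate transformations. The plates were LB agar with 100 μg/mL carbenicillin, 50 μM IPTG and 0.2% rhamnose, with or without 25 μg/mL kanamycin, incubated overnight at 37°C or 30°C. The E. coli BL21(DE3) library had all eight P1ex-region intron nucleotides randomised, the intron placed in the knt kanamycin-resistance gene on pET-22b(+). DiMSum fitness is the error-weighted combination of replicate fold changes, kanamycin against none, normalised to wild type.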
Sequence,self-splicing fitness (ln) (30 °C),self-splicing fitness (ln) (37 °C)
UACUAGCAAUAUUACGCACG,-0.877 ± 0.089,-0.992 ± 0.11
UACUAGCAAUAUUACGCCUA,-0.895 ± 0.14,0.591 ± 0.13
UACUAGCAAUAUUACGCUCC,-2.42 ± 0.23,-1.21 ± 0.23
UACUAGCAAUAUUACGGAAA,-2.64 ± 0.22,-1.27 ± 0.18
UACUAGCAAUAUUACGGAGA,-2.59 ± 0.17,-1.84 ± 0.16
UACUAGCAAUAUUACGGAUA,-1.72 ± 0.096,-0.886 ± 0.092
UACUAGCAAUAUUACGGCUG,-0.825 ± 0.14,-0.545 ± 0.19
UACUAGCAAUAUUACGGGGA,-1.37 ± 0.14,-0.992 ± 0.12
UACUAGCAAUAUUACGGUCG,-0.0757 ± 0.12,0.338 ± 0.16
UACUAGCAAUAUUACGUAUG,-3.59 ± 0.26,-1.8 ± 0.23
UACUAGCAAUAUUACGUGAG,-3.38 ± 0.13,-2.56 ± 0.23
UAGAAGCAAUAUUACGAAUA,-1.14 ± 0.12,-0.376 ± 0.12
UAGAAGCAAUAUUACGAAUC,-3.48 ± 0.4,-2.65 ± 0.36
UAGAAGCAAUAUUACGAAUG,-0.651 ± 0.071,-0.298 ± 0.09
UAGAAGCAAUAUUACGACAA,-0.512 ± 0.1,-0.213 ± 0.11
UAGAAGCAAUAUUACGACCG,-0.345 ± 0.18,-0.138 ± 0.25
UAGAAGCAAUAUUACGAGAG,-3.63 ± 0.28,-1.46 ± 0.34
UAGAAGCAAUAUUACGAGCU,-3.2 ± 0.25,-1.18 ± 0.2
UAGAAGCAAUAUUACGAGGC,,-2.21 ± 0.42
UAGAAGCAAUAUUACGAGUG,-0.527 ± 0.048,-0.505 ± 0.071
UAGAAGCAAUAUUACGAUCA,-0.731 ± 0.064,0.138 ± 0.086
UAGAAGCAAUAUUACGCAAC,-1.44 ± 0.18,-2.33 ± 0.42
UAGAAGCAAUAUUACGCACC,-2.13 ± 0.27,-1.44 ± 0.25
UAGAAGCAAUAUUACGCGAA,-1.61 ± 0.18,-0.748 ± 0.17

Sequence,self-splicing fitness (ln) (30 °C),self-splicing fitness (ln) (37 °C)
UAGAAGCAAUAUUACGCUCA,0.205 ± 0.16,-0.337 ± 0.18
UAGAAGCAAUAUUACGGAUC,-2.24 ± 0.12,-1.49 ± 0.17
UAGAAGCAAUAUUACGGCAG,-0.136 ± 0.12,0.24 ± 0.16
UAGAAGCAAUAUUACGGCGC,-1.94 ± 0.19,-0.275 ± 0.3
UAGAAGCAAUAUUACGGCGU,-0.78 ± 0.077,-0.678 ± 0.11
UAGAAGCAAUAUUACGGGCA,-1.17 ± 0.16,-0.144 ± 0.12
UAGAAGCAAUAUUACGUCGG,-0.813 ± 0.073,-0.306 ± 0.091
UAGAAGCAAUAUUACGUGCA,-0.492 ± 0.087,-0.0303 ± 0.093
UAGAAGCAAUAUUACGUGUC,-3.27 ± 0.22,-2.31 ± 0.23
UAGAAGCAAUAUUACGUUAA,-3.14 ± 0.16,-1.39 ± 0.15
UAGCAGCAAUAUUACGACGA,-0.341 ± 0.07,0.256 ± 0.079
UAGCAGCAAUAUUACGAGAG,-2.8 ± 0.2,-3.15 ± 0.29
UAGCAGCAAUAUUACGAGGU,-3.43 ± 0.15,-1.7 ± 0.13
UAGCAGCAAUAUUACGAUAC,-4.05 ± 0.4,-2.2 ± 0.33
UAGCAGCAAUAUUACGCGGA,-0.908 ± 0.079,-0.843 ± 0.082
UAGCAGCAAUAUUACGCUGC,-2.86 ± 0.35,-2.2 ± 0.32
UAGCAGCAAUAUUACGCUGU,-3.59 ± 0.25,-3.42 ± 0.35
UAGCAGCAAUAUUACGGAGA,-3.24 ± 0.33,-2.18 ± 0.14
UAGCAGCAAUAUUACGGGGA,-2.85 ± 0.2,-1.73 ± 0.12
UAGCAGCAAUAUUACGGUGA,-0.912 ± 0.08,-0.0764 ± 0.096
UAGCAGCAAUAUUACGUCCU,-1.1 ± 0.068,-0.435 ± 0.087
UAGCAGCAAUAUUACGUCGC,-4.47 ± 0.24,-2.73 ± 0.22
UAGCAGCAAUAUUACGUCUC,-1.96 ± 0.17,-0.915 ± 0.15
UAGCAGCAAUAUUACGUGCG,-0.801 ± 0.076,0.26 ± 0.081

# Reference: the supplement of paper PMC7877785
